This assay deals with c-Kit (CD117; mast/stem cell growth factor receptor) on CD117+ bone marrow cells of β-globin/GFP transgenic mice (mouse) (UniProt P05532). In words: cell-based or functional assay.
UniProt P05532, sequence (P05532 25-979): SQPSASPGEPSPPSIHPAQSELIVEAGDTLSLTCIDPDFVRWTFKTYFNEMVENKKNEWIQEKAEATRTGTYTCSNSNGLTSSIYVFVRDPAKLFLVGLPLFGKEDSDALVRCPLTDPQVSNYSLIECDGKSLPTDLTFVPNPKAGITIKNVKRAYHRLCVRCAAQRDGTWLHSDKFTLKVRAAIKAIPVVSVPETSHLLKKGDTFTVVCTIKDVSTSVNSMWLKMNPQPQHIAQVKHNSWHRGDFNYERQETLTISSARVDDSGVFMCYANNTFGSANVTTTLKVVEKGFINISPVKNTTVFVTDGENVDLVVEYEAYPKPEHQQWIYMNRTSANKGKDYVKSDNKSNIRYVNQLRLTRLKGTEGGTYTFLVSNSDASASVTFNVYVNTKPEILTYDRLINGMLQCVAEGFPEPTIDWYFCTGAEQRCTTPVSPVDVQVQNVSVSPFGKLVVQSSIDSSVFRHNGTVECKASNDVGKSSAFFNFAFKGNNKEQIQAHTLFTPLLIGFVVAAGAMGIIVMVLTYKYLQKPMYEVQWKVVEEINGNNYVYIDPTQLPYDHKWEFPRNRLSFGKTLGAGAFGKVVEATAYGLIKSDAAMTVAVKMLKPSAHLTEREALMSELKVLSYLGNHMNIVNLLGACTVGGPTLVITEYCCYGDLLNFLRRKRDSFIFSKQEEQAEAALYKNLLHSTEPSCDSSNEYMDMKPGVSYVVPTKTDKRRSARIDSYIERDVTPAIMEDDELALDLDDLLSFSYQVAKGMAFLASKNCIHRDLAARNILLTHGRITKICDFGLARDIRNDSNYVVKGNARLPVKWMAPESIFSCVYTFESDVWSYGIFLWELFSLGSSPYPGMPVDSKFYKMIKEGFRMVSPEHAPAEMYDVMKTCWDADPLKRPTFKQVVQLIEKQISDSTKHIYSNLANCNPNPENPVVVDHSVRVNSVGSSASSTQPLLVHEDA

For the substance “Recombinant murine SCF (stem cell factor), catalog #250-03, PeproTech (from UniProt P20826 26-189) (ligand)”, the HDR activity (recombination between reporter gene constructs) in CD117+ cells stood at 2 fold and the γtcPNA4/donor DNA-mediated gene editing (% GFP expressing CD117+ cells, flow cytometry) turned out to be 15%.

The values above are taken from patent US20200113821A1.
